Laboratory results from patent US20230183339A1.

Target: FcRn
Test: BIAcore at pH 6.0

| Substance | Kd [µM] |
| --- | --- |
| wild-type irrelevant IgG1 (antibody) | 1.64 |
| wild-type irrelevant IgG4 (antibody) | 3.64 |
